According to article PMC7048932, “Examining sterically demanding lysine analogs for histone lysine methyltransferase catalysis” (Scientific Reports, 2020):

Tests used:
GLP (human) = GLP (human) (UniProt Q9H9B1)
G9a (human) = G9a (human) (UniProt Q96KQ7)
SETD7 (human) = target: T1, SETD7 (human) (UniProt Q8WTS6)
T1 sequence: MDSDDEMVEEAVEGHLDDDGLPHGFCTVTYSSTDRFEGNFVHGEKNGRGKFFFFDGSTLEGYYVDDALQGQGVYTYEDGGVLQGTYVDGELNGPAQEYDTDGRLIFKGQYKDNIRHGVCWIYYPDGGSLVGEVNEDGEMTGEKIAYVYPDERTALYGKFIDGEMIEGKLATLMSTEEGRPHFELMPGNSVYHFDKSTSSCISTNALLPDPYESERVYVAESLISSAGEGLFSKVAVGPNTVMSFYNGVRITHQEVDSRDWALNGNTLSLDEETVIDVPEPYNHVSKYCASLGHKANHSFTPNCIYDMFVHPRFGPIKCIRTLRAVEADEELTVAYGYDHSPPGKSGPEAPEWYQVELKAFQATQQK

Chain of G9a (human) (Q96KQ7 whole entry): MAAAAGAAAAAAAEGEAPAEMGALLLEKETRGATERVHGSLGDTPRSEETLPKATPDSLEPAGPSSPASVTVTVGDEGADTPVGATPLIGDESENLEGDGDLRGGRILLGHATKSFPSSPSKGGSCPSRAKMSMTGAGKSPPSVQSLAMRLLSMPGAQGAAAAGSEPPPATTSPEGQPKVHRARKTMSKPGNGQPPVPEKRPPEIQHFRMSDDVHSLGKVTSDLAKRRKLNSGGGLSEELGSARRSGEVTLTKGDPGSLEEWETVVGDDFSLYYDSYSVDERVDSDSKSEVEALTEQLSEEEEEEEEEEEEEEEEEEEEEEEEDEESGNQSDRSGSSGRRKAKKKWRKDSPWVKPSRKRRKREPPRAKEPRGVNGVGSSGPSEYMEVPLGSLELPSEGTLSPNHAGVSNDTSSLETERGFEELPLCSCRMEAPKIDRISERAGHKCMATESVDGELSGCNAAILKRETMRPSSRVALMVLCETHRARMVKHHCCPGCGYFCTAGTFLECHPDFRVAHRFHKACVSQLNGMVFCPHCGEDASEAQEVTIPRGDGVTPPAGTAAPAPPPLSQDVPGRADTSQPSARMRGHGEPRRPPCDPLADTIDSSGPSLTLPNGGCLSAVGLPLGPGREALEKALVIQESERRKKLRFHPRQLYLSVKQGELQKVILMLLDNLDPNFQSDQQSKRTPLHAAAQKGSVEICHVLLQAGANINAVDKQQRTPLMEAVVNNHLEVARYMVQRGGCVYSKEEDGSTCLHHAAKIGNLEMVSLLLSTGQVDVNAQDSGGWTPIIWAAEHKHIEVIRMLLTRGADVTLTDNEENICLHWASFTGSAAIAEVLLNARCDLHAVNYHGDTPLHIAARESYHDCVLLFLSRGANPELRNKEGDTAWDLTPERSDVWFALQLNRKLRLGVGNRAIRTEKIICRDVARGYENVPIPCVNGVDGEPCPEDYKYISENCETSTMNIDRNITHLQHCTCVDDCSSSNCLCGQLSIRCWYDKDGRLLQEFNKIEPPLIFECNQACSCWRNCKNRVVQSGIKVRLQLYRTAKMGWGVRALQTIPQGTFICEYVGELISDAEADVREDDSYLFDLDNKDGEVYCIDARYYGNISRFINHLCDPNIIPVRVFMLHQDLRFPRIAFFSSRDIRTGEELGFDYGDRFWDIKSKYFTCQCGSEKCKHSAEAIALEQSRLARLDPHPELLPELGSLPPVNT
Chain of GLP (human) (Q9H9B1 whole entry): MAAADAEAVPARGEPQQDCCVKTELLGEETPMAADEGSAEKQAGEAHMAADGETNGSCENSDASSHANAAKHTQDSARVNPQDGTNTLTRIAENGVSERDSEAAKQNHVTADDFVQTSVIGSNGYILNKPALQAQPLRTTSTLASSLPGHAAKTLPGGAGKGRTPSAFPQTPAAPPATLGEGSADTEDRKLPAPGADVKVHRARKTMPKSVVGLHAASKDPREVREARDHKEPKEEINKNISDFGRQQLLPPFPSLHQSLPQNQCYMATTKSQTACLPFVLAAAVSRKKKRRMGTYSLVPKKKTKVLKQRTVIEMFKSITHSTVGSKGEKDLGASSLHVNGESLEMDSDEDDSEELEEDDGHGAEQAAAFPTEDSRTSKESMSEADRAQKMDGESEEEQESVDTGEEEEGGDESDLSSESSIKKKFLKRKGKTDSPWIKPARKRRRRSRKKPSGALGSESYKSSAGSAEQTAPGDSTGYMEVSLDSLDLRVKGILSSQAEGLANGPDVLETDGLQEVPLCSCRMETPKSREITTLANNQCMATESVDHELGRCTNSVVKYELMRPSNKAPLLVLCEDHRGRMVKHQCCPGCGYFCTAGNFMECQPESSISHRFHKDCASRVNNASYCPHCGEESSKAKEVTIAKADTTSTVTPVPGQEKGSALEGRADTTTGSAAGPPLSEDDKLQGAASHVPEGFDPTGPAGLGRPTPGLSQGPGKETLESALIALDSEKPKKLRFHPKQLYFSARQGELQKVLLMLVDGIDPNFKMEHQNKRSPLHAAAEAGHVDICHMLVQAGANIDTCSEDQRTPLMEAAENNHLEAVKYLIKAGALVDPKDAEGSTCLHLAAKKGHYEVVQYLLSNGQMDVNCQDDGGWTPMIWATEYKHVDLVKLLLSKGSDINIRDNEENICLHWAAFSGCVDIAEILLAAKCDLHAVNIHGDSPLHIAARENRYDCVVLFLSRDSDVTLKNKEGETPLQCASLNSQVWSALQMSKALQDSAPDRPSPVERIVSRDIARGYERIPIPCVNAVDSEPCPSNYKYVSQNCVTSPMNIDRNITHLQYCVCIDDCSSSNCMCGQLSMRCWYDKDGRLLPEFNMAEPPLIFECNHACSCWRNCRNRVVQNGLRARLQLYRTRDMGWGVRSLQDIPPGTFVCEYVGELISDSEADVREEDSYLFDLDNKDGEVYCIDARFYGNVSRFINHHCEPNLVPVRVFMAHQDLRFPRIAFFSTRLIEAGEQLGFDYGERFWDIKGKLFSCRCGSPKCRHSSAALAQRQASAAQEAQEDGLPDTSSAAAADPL

Row | Substance | IC50 of inhibition of GLP (100 nM) methylation of a 21-mer H3 peptide (residues 1–21, 5 µM) with SAM (20 µM), MALDI-TOF MS (GLP (human)) | IC50 of inhibition of G9a (100 nM) methylation of a 21-mer H3 peptide (residues 1–21, 5 µM) with SAM (20 µM), MALDI-TOF MS (G9a (human)) | IC50 of inhibition of SETD7 (100 nM) methylation of a 21-mer H3 peptide (residues 1–21, 5 µM) with SAM (20 µM), MALDI-TOF MS (SETD7 (human)) | percent inhibition of SETD7 (100 nM) methyltransferase activity at 100 µM peptide, MALDI-TOF MS (SETD7 (human))
1 | H3F4a4 histone peptide | – | – | > 100 µM | 11%
2 | H3K4 analog histone peptide with meta-aminophenylalanine (F3a) at position 4 | – | – | > 100 µM | –
3 | H3K4 analog histone peptide with pyridylalanine (AP) at position 4 | – | – | > 100 µM | –
4 | H3Kba9 histone peptide | > 100 µM | > 100 µM | – | –

The remaining lines, values ahead:

Row | IC50 of inhibition of GLP (100 nM) methylation of a 21-mer H3 peptide (residues 1–21, 5 µM) with SAM (20 µM), MALDI-TOF MS (GLP (human)) | IC50 of inhibition of G9a (100 nM) methylation of a 21-mer H3 peptide (residues 1–21, 5 µM) with SAM (20 µM), MALDI-TOF MS (G9a (human)) | IC50 of inhibition of SETD7 (100 nM) methylation of a 21-mer H3 peptide (residues 1–21, 5 µM) with SAM (20 µM), MALDI-TOF MS (SETD7 (human)) | percent inhibition of SETD7 (100 nM) methyltransferase activity at 100 µM peptide, MALDI-TOF MS (SETD7 (human)) | Substance
5 | > 100 µM | > 100 µM | – | – | H3AP9 histone peptide
6 | 26 µM | – | – | – | H3F3a9 histone peptide
7 | > 100 µM | > 100 µM | – | – | H3F4a9 histone peptide
8 | – | – | > 100 µM | – | H3K4 analog histone peptide with benzylamine (Kba) at position 4
